Experimental data reported in publication PMC12749748, “Chemically-induced degradation of the endoplasmic-reticulum stress sensor IRE1 by a VHL-recruiting chimera” (Nature Communications, 2025).

Target: Biotinylated human IRE1.KR protein (human) (UniProt O75460)
Assay: SPR; Biacore S200, 20 °C; biotinylated IRE1.KR captured on a streptavidin chip (100-200 RU); VHL titrated without G6374, 8-point 2-fold series, top 5 µM, single cycle kinetics; 50 mM HEPES pH 7.4, 150 mM NaCl, 0.01% Tween 20, 0.2% PEG3350, 0.25 mM TCEP, 100 µg/ml ovalbumin, 2% DMSO

Biotinylated human IRE1.KR protein (human), sequence (O75460 547-977): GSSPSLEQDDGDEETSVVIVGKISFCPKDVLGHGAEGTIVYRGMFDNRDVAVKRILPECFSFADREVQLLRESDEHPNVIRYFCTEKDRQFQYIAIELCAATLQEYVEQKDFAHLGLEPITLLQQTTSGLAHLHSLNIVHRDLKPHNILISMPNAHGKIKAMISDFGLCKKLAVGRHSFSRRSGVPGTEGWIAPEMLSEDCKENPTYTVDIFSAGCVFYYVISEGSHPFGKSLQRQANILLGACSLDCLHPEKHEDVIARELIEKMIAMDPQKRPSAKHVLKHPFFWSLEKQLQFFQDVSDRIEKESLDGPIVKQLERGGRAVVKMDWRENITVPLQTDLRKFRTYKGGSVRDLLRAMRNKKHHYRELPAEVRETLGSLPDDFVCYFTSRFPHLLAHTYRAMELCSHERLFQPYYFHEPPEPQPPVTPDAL

KD without G6374: > 10 µM
Substance: his-VHL/EloB (VHL in complex with Elongin B) (from UniProt P40337 1-213; Q15370 1-118)
